Laboratory results reported in the supplement of paper PMC10065799, “High-throughput profiling of sequence recognition by tyrosine kinases and SH2 domains using bacterial peptide display” (eLife, 2023).

How the values were obtained:
AncSZ = assay: phosphorylation enrichment, bacterial display (enrichment ratio); higher = better substrate or ligand; peptides without Tyr show the background
EPHB1 = EPHB1 (UniProt P54762); assay: as above
EPHB2 = EPHB2 (UniProt P29323); assay: as above
FGFR1 = FGFR1 (UniProt P11362); assay: as above
FGFR1, sequence (P11362 whole entry, looked up): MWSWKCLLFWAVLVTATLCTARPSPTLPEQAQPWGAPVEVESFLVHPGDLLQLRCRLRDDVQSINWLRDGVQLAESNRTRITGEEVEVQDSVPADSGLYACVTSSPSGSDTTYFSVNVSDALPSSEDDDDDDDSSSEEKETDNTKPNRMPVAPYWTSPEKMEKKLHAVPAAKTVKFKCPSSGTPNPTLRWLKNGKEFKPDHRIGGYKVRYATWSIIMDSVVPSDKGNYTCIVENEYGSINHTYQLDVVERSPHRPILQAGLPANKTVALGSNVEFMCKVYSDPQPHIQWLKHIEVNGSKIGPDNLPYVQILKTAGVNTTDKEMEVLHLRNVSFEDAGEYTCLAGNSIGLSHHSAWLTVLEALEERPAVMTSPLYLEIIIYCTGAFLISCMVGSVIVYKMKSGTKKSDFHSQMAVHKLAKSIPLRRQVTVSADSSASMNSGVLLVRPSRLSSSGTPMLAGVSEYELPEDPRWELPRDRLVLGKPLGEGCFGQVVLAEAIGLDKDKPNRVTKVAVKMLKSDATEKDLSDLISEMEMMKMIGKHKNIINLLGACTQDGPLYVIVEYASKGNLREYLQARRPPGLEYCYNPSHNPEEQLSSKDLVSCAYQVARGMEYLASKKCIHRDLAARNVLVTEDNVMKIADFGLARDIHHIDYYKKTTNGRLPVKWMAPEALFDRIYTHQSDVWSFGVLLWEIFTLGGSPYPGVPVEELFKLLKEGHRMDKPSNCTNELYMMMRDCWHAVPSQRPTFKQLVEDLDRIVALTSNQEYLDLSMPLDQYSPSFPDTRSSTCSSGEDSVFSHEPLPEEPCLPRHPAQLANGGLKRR

FGFR3 = FGFR3 (UniProt P22607); assay: as above
Fer (mouse) = assay: as above
Fes = Fes (UniProt P07332); assay: as above
Fes, sequence (P07332 whole entry, looked up): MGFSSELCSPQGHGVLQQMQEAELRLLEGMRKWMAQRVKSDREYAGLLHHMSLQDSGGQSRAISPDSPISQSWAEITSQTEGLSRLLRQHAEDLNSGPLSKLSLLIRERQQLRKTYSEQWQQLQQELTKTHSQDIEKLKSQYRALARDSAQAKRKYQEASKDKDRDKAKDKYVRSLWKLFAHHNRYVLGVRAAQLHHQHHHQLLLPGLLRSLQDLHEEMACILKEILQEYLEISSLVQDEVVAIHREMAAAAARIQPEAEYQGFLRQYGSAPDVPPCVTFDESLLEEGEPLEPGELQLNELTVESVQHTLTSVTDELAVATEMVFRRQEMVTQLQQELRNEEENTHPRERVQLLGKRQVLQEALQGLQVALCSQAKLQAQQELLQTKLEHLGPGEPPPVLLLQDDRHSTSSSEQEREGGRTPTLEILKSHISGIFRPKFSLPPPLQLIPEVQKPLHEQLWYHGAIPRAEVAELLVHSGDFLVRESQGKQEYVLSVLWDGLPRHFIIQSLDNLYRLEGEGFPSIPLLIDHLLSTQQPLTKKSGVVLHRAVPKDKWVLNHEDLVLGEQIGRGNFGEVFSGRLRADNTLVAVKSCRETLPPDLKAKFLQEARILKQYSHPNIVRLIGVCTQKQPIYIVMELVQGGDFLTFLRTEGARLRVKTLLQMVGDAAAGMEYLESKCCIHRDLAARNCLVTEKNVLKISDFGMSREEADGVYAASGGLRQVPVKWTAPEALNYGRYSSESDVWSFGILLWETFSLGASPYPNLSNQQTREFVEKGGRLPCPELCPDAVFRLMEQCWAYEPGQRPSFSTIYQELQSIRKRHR

Fyn = Fyn (UniProt P06241); assay: as above
Fyn, sequence (P06241 whole entry, looked up): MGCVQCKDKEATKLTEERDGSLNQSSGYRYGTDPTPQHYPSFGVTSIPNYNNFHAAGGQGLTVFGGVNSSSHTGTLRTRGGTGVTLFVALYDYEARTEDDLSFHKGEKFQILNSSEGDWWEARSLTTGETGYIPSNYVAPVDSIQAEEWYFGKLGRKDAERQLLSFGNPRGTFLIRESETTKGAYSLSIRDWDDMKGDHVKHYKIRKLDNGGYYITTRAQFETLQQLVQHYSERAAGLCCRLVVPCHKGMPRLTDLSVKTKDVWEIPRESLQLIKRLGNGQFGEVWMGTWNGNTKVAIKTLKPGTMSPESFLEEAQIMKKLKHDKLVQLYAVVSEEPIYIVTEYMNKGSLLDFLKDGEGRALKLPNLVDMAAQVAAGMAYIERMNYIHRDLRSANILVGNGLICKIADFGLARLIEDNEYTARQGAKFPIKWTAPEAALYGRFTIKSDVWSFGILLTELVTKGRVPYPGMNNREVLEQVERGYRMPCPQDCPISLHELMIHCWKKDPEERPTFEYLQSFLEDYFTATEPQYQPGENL

Hck = Hck (UniProt P08631); assay: as above
Hck, sequence (P08631 whole entry, looked up): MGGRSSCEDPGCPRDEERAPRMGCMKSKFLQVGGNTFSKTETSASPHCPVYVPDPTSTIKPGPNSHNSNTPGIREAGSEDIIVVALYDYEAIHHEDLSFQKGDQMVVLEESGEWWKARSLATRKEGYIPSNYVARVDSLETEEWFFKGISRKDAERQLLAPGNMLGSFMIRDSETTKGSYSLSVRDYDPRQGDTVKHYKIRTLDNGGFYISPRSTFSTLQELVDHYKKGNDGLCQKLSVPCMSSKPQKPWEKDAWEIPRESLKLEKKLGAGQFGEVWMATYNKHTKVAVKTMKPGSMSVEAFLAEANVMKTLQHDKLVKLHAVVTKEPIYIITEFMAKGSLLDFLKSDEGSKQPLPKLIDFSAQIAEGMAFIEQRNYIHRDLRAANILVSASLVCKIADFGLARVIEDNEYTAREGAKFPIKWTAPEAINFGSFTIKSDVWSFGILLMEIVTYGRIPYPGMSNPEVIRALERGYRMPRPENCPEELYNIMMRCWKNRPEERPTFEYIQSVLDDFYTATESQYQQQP

Jak2 = Jak2 (UniProt O60674); assay: as above
Jak2, sequence (O60674 whole entry, looked up): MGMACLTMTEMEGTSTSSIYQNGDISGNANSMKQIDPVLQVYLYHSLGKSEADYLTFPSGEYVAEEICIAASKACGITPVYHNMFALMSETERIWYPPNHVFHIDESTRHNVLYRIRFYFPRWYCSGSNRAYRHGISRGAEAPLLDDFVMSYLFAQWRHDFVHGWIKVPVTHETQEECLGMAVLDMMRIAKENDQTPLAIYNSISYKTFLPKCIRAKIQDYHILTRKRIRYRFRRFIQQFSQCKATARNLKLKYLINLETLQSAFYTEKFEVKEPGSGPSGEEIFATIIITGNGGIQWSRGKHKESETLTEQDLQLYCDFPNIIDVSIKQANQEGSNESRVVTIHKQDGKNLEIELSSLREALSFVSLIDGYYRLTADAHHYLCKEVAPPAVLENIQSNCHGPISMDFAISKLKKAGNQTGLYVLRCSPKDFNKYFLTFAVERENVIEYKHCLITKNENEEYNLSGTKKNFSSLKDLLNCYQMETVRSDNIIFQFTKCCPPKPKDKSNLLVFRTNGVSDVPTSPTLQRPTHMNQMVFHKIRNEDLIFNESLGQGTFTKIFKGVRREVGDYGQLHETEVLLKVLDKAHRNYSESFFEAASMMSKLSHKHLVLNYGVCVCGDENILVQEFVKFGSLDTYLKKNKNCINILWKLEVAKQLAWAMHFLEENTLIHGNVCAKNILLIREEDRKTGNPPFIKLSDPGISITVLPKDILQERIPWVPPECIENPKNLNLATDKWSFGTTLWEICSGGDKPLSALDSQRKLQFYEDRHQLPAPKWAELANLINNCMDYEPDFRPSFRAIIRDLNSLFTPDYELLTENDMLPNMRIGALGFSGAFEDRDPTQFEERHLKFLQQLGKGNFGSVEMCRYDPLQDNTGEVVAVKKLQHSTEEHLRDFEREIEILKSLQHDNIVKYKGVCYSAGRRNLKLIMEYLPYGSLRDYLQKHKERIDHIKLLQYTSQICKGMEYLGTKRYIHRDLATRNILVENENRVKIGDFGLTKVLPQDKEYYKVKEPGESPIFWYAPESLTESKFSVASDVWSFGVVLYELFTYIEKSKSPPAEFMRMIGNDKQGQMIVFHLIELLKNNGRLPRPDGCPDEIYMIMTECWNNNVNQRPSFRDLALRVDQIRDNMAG

MERTK = MERTK (UniProt Q12866); assay: as above
MERTK, sequence (Q12866 whole entry, looked up): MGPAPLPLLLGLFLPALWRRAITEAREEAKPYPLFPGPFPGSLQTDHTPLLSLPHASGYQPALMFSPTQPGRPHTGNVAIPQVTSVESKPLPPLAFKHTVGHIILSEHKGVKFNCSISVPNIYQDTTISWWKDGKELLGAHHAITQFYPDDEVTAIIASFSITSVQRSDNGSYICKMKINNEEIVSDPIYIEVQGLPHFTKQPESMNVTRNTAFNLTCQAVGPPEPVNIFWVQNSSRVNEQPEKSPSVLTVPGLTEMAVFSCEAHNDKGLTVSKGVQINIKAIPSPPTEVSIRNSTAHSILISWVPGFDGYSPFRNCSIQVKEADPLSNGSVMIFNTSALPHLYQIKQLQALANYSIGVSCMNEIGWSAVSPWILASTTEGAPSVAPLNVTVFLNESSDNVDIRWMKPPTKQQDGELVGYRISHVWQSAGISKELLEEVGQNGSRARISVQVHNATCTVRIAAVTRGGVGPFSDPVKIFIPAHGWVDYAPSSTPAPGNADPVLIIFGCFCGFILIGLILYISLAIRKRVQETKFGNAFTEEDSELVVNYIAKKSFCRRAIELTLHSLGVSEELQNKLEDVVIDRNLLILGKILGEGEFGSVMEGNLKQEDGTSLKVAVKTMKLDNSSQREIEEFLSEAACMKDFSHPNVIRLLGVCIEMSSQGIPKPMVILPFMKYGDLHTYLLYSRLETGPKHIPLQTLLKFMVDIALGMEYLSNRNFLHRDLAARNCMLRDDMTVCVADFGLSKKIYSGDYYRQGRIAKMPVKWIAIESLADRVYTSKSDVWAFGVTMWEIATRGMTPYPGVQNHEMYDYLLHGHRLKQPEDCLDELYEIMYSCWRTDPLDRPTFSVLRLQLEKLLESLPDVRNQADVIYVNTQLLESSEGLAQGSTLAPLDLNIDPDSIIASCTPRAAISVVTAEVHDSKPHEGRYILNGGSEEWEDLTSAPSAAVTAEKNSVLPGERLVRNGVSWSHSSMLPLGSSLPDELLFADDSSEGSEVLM

c-Abl (mouse) = assay: as above
c-Src = assay: as above
Grb2 SH2 = Grb2 SH2 (UniProt P62993); assay: SH2 binding enrichment of the phosphorylated peptide, bacterial display (enrichment ratio); higher = better substrate or ligand; peptides without Tyr show the background
SHP2-C SH2 = assay: as above
c-Src SH2 = assay: as above
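Throughout, for SH2 binding enrichment of the phosphorylated peptide, bacterial display: peptide library displayed on the E. coli surface as eCPX fusions, selected cells deep-sequenced, score is each peptide's frequency after selection divided by its frequency in the input.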
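Throughout, for phosphorylation enrichment, bacterial display: 11-residue human phosphosite peptides and single-mutation variants displayed on the E. coli surface, counted by deep sequencing, each peptide's frequency after selection divided by its frequency in the unselected input library; frequency after pTyr selection over input frequency; kinase dosed for 20-30% of maximal phosphorylation in three min.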

SH2 binding enrichment (Grb2 SH2) | SH2 binding enrichment (SHP2-C SH2) | SH2 binding enrichment (c-Src SH2) | Sequence | phosphorylation enrichment (AncSZ) | phosphorylation enrichment (EPHB1) | phosphorylation enrichment (EPHB2) | phosphorylation enrichment (FGFR1) | phosphorylation enrichment (FGFR3) | phosphorylation enrichment (Fer (mouse)) | phosphorylation enrichment (Fes) | phosphorylation enrichment (Fyn) | phosphorylation enrichment (Hck) | phosphorylation enrichment (Jak2) | phosphorylation enrichment (MERTK) | phosphorylation enrichment (c-Abl (mouse)) | phosphorylation enrichment (c-Src)
1.1 | 1.05 | 0.713 | FAELVYTVFWH [ASS1_Y322_G324V] | 2.15 | 2.33 | 2.94 | 4.39 | 3.34 | 6.19 | 1.63 | 7.64 | 5.47 | 2.27 | 8.06 | 12.5 | 7.17
1.61 | 1.31 | 0.837 | RFVVLYDAELT [ERCC4_Y581_YF] | 1.58 | 1.38 | 1.15 | 0.841 | 0.763 | 0.672 | 1.9 | 0.657 | 0.91 | 1.72 | 0.979 | 0.876 | 0.807
0.877 | 0.748 | 1.08 | AVEDQYYCVDC [FHL1_Y207] | 2.07 | 0.53 | 0.598 | 5.7 | 4.65 | 0.684 | 1.3 | 0.853 | 0.796 | 1.39 | 0.72 | 0.786 | 1.97
0.794 | 0.571 | 0.483 | REATAYLHGRL [AGXT_Y297_A295T] | 0.665 | 0.539 | 0.662 | 0.534 | 0.533 | 0.615 | 0.793 | 0.595 | 0.488 | 0.871 | 0.374 | 0.63 | 0.521
1.08 | 5.6 | 0.53 | DAPVVYLGSFR [PRAG1_Y132] | 0.773 | 0.402 | 0.449 | 0.418 | 0.52 | 0.448 | 0.906 | 0.436 | 0.575 | 0.73 | 0.476 | 0.743 | 0.449

The next lines start with the sequence.

Sequence | SH2 binding enrichment (Grb2 SH2) | SH2 binding enrichment (SHP2-C SH2) | SH2 binding enrichment (c-Src SH2) | phosphorylation enrichment (AncSZ) | phosphorylation enrichment (EPHB1) | phosphorylation enrichment (EPHB2) | phosphorylation enrichment (FGFR1) | phosphorylation enrichment (FGFR3) | phosphorylation enrichment (Fer (mouse)) | phosphorylation enrichment (Fes) | phosphorylation enrichment (Fyn) | phosphorylation enrichment (Hck) | phosphorylation enrichment (Jak2) | phosphorylation enrichment (MERTK) | phosphorylation enrichment (c-Abl (mouse)) | phosphorylation enrichment (c-Src)
YQQLFYLLQTN [IQGAP2_Y890] | 1.49 | 1.83 | 1.11 | 1.36 | 1.92 | 0.758 | 2.75 | 2.26 | 0.692 | 1.35 | 0.751 | 1.17 | 1.39 | 2.7 | 1.03 | 1.3
GGEEFYVHYVG [KAT8_Y90_R86G] | 0.931 | 1.89 | 0.495 | 1.32 | 0.627 | 0.532 | 0.681 | 0.849 | 0.532 | 1.21 | 0.547 | 0.488 | 1.22 | 0.455 | 0.741 | 0.565
TVLWRYTGTRP [UGT1A1_Y337] | 0.707 | 0.724 | 0.588 | 1.17 | 0.432 | 0.582 | 0.495 | 0.606 | 0.423 | 1.01 | 0.411 | 0.557 | 0.779 | 0.317 | 0.633 | 0.344
SSQVLYKLEQS [THADA_Y701] | 0.893 | 0.678 | 0.527 | 0.628 | 0.476 | 0.592 | 0.434 | 0.507 | 0.431 | 0.726 | 0.48 | 0.487 | 0.731 | 0.442 | 0.496 | 0.706
QAQMDYRRWQP [MPL_Y591_L594W] | 0.635 | 0.55 | 0.386 | 0.548 | 0.523 | 0.539 | 0.402 | 0.491 | 0.49 | 0.795 | 0.461 | 0.424 | 0.762 | 0.373 | 0.745 | 0.361
PESIMYPKFTT [NTRK3_Y744_R745P] | 0.748 | 0.594 | 0.596 | 0.66 | 0.513 | 0.586 | 0.656 | 0.794 | 0.549 | 1.09 | 0.707 | 0.739 | 0.717 | 0.579 | 0.595 | 0.397
RAMPVYKEAEH [TP63_Y231_K233E] | 0.98 | 0.58 | 0.508 | 1.02 | 0.561 | 0.67 | 0.763 | 0.663 | 0.602 | 1.01 | 0.511 | 0.664 | 0.832 | 0.503 | 0.665 | 0.563
EVQKNYEHLFK [PAM16_Y77] | 0.897 | 0.77 | 0.634 | 0.706 | 0.57 | 0.479 | 0.4 | 0.517 | 0.436 | 0.715 | 0.398 | 0.438 | 0.8 | 0.318 | 0.632 | 0.359
SSEILYHIIKG [CDH17_Y489_K486E] | 1.2 | 1.18 | 2.4 | 1.38 | 0.806 | 0.684 | 10.9 | 8.65 | 1.08 | 0.875 | 2.85 | 5.02 | 1.69 | 8.04 | 10.4 | 4.11
QPGTDYKIFRF [FN1_Y1970_L1974R_YF] | 0.644 | 0.635 | 0.497 | 1.77 | 0.754 | 0.567 | 1.22 | 1.28 | 0.756 | 2.04 | 0.529 | 1.18 | 1.64 | 1.17 | 1.74 | 1.89
CTTIHYNYMCS [TP53_Y234_N239S] | 1.43 | 2.75 | 4.92 | 0.848 | 0.992 | 0.62 | 0.647 | 0.639 | 0.713 | 0.835 | 0.44 | 0.531 | 0.636 | 0.545 | 0.715 | 0.538
